Measured values published in the nanobody polyreactivity screen of Harvey et al. (2022).

Assay: yeast display, Sf9 membrane polyspecificity reagent, FACS + sequencing; frameworks hold sequencing errors
How it was run: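 Genes from sorted yeast were amplified by colony PCR, read by MiSeq 2 × 250 sequencing and filtered on CDR length. These cells carried a synthetic nanobody library in Saccharomyces cerevisiae BJ5465 and were sorted by FACS into low and high (top ~1%) gates on anti-HA and streptavidin fluorescence. Polyreactivity is labelled according to the gate of origin.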

Row | Sequence | polyreactivity (PSR sort gate)
1 | QVQLVESGRGFVQAGGSLRLSCADSGSTFRYYAMGWYRQAPGKERELVAAISWSGGSTYYADSVKGRFTISRDNAKNTVYLQMNSLKPEDTAVYYCAAEVYLVGSRWGPRYGDYWGQGTQVTVSS | high polyreactivity
2 | QVQLVESGRGIVQAGGSLRLSCAASGSIFWLYAMGWYRQAPGKERELVAAISWSGTSTNYADSVKGRFTISRDNAKNTVYFQMNSLKPEDTAVYYCAKRWYNQKLFGYEEEYDYWGQGTQVTVSS | low polyreactivity
3 | QVQLVESGRGIVQAGGSLRLSCAASGSTLNDYAMGSSRPAPGKERELVAAINGSGGSTYYADSVKGRFTISRDNAKNTVYLQMNSLKPEDTAVYYCAAATTHRRRYGYWGQGTQVTVSS | low polyreactivity
4 | QVQLVESGRGLFQAGGRLRLSCAASGRIFSFYAMGWSRQAPGKERELVASITSGGITNYADSVKGRFTISRDNAKNTVYLQMNSLKPEDTAVYYCNAANPYRRVGSFTYKYDYWGQGTQVTVSS | low polyreactivity
5 | QVQLVESGRGLVQAGGILRLSCDASGRTIYFNRMGWYRHAPGKEREFVAAINRSGGSTYYADSVKGRFTISRDNAKNTVYLQMNSLKPEDTAVYYCAADGVIFEYDYWGQGTQVTVSS | low polyreactivity
6 | QVQLVESGRGLVQAGGRHRISCAASGSIIHDYAMGLYSQAPGKERELVAVISTSGGSTYYADSVKGRFTMSRDNAKNTVYLQMISLKPEETEVYYCNARTVGPYPSHAALEYDSWGPGTQVTVSS | low polyreactivity
7 | QVQLVESGRGLVQAGGRLRLSCAASGSTFDGYAMGLYRQAPGKERELVAAITVSVGSTYYADSVKGRFTISRDNAKNTVYLQMNSLKPEDTAVYYCAADYDYQYRYYYWGQGTKVTVSS | low polyreactivity
8 | QVQLVESGRGLVQAGGSLRISCAASGFTFRKYTMGWNRQAPGKERELVAAISRRGGSTYYADSVKSRFTISRDNAKNTVYLQMNSLKPEVTAVYYCATDHIPSVGVDYWGQGTQVTVSS | high polyreactivity
9 | QVQLVESGRGLVQAGGSLRLRCAASGFTIYPYVMGWYRQAPGKERELVAAISWSGGRTSYADSVKGRFTISRDNAKNTVYLQMNSLKPEDTAVYYCATRPSHVLSEMDYWGQGTQVTVSS | low polyreactivity
10 | QVQLVESGRGLVQAGGSLRLSCAASGFIFAKYDMGCYSKAPVKERELVAAITRSGARTYYADSVKGRFTISRDNAKTTVYLQMNSLKPEDTAVYYCAIVTTVYTYDYWGQGTQVTVSS | high polyreactivity
11 | QVQLVESGRGLVQAGGSLRLSCAASGFTFYRYAMGWYRQAPGKERELVATISASGGSTYYADSVKGRFTISRDNAKNTVYLQMNSLKPVDTAVFYCARYIYRSAFDYWGQGTQVTVSS | high polyreactivity
12 | QVQLVESGRGLVQAGGSLRLSCAASGFTLICNARGCYRQAPGKERELVAAITWSGGSTYYADSVKGRFTISRDKAKNTVYLQMNSLKPEDTAVYYCAADYSIQSNDDWGQGTQVTVSS | low polyreactivity
13 | QVQLVESGRGLVQAGGSLRLSCAASGGTFGNNDMGWYRQAPGKERELVAAIRSAGTTYYADSVKGRFTISRDNAKNTVYLQMNSLKPEDTAVYYCNAYTTGYWSYGFQYYGEDYWGQGTQVTVSS | low polyreactivity
14 | QVQLVESGRGLVQAGGSLRLSCAASGITFYTYAMGWYRQEPGKARELVATISSGGSTDYADSVKGRFTISRDNAKITVYLQMNSLKPEDTAVYYCADQYSYRIYYLYDYWGQGTQVTVSS | low polyreactivity
15 | QVQLVESGRGLVQAGGSLRLSCAASGLIFGRNAMGWYIQAPGKERECVAANTSGGSTYYADSVKGRFTISRDNAKNSVYLQMNSLKPEDTAVYYCAADVVDLYLLDYWGQGTQVTVSS | low polyreactivity
16 | QVQLVESGRGLVQAGGSLRLSCAASGLTFGHYAMGGYRQAPGKERELVAAITSGGRTYYADSVKGRFTISRDNAKNTVYLQMNSLKPEDTAVYYCATRGPRYRYYYWGQGTQVTVSS | high polyreactivity
17 | QVQLVESGRGLVQAGGSLRLSCAASGRIFNLNAMGWYRQAPGKERELVAAITRGGRTIYADSVKGRFTISRDNAQNTVYLQMNSLKPEDTAVYYCAAAYYGSHGRYDYWGQGTQVTVSS | high polyreactivity
18 | QVQLVESGRGLVQAGGSLRLSCAASGRIFSIYAMGWYRQAPGKERELVAAITRGGRTNYADSVKGRFTISRDNAKNTVYLQMNSLKPEDTAVYYCAARRIDGVVKPYDYWGQGTQVTVSS | low polyreactivity
19 | QVQLVESGRGLVQAGGSLRLSCAASGRIFVHYAMGWYRQAPGKERELVAAITYSGDSTYYADSVKGRFTISRDNAKNTVYLQMNSLKPEDTAVYYCNAVVRRVLFDYDYWGQGTQVTVSS | high polyreactivity
20 | QVQLVESGRGLVQAGGSLRLSCAASGRSFAVYAMAWYRPAPGKVMELVAAISSGGSTYYADSVKGRFTSSRDNAKNTVYVQMNSLKPEDSSVSYCAAGWKRLSGRKHYYWGQGTQVTVSS | high polyreactivity
21 | QVQLVESGRGLVQAGGSLRLSCAASGRTFPFYAMGWYRQAPGKEREFVAAITASGDSTYYADSVKGRFTISRDNAKNTVYFQMHSLKPEDTAVYYCAADLPVWYVTRYDYWGQATQVTVSS | low polyreactivity

Row | Sequence | polyreactivity (PSR sort gate)
22 | QVQLVESGRGLVQAGGSLRLSCAASGRTFRGNAMGWYREAPGKERELVAAIRYRGGSTYYADSVKGRFTISRDNAKNTVYLQMNSLKPEDTAVYYCARRYTVHTQHYDYWGQGTQVNVSS | high polyreactivity
23 | QVQLVESGRGLVQAGGSLRLSCAASGRTFWIYAMGWYRQAPGKERELVAAISRGGSTYADSVKGRFTISRDNAKNTVYLQMNSLKPEDTAVYYCAASTPQYQYYYWGQGTQVTVSS | high polyreactivity
24 | QVQLVESGRGLVQAGGSLRLSCAASGRTFWTYTMGCYRQAPWKEREFVAAITFGDGSTSYADYVKGRFTISRDNAKNTVFLQMNSLKQEDTAVYYCAKRWRRRFVDVWSLYDYWGHGTQVTVSS | low polyreactivity
25 | QVQLVESGRGLVQAGGSLRLSCAASGRTFYSNTMGWSRQAPGKERELVAVISNGGSTYYADSVKGRFTISRDNAKYTVYLQMNSLKPEETAVYYCAARSRDRYRGNYWGQGTQVTVSS | high polyreactivity
26 | QVQLVESGRGLVQAGGSLRLSCAASGRTFYYYAMGWYRQAPGKERELVAAISRSGTRTYYADSVKGRFTISRDNAKNTVYLQMNSLKPEDTAVYYCAAVGAAGQDNYWGQGTQVTVSS | high polyreactivity
27 | QVQLVESGRGLVQAGGSLRLSCAASGSIFGRNAMGWYRQAPGKERELVAAITWRGGRTYYADSVKGRFTISRDNAKNTVYLQMNSLKPEDTAVYYCAAVVAYQYTGYRFDYWGQGTQVTVSS | high polyreactivity
28 | QVQLVESGRGLVQAGGSLRLSCAASGSIFYYLAKGWYRQAPGKERELVAVIDFSGASTSYADSVKGRFTISRDNAKNTVYLQMNSLKPEDTAVYYCAADRFRRKVRVDYWGQGTQVTVSS | low polyreactivity
29 | QVQLVESGRGLVQAGGSLRLSCAASGSILVFYAMGWYRQAPGKERELVATITGSVGRTSYADSVKGRFTISRDNAKNTVYLQMNSLKPEDSAVYYCAADADTDVFYILQEYDYWGQGTQVTVSS | low polyreactivity
30 | QVQLVESGRGLVQAGGSLRLSCAASGSTFKDYPMGWYRQAPGKESELVARISTRVGSTYYPDSVKGRFTISRDNAKNTVYLQMNRLNPEDTAVFYCNARWWYPPYYYWGQGTQVSVSS | high polyreactivity
31 | QVQLVESGRGLVQAGGSLRLSCAASGSTFLDYAMGWYRQAPGKERELVAAINGSGSRTYYADSVKGRFTISRDNAKNTVYLQMNRLKPEDTAVYYCAHEYGYWGQGTQVTVSS | low polyreactivity
32 | QVQLVESGRGLVQAGGSLRLSCAPSGSTIQDYAMGWYRQAPGKERELVAAISWRSDITYYAESVKGRFTISRDNAKNTVYLQMNSLKPEDTAVYYCAADNSYHWLDREFDYEFDYWGQGTQVTVSS | high polyreactivity
33 | QVQLVESGRGLVQAGGSLRLSCASSGFTLSPNAMRWYRPAPGKEREFVAAISQRGGSTYYADSVKGRFTISRDNAKNTVYLQMNSLKPEDTAVYYCARDTKYKYDFWGQGTQVTVSS | low polyreactivity
34 | QVQLVESGRGLVQAGGSLRLSSAASGRIFPTNAMGWYRQAPGKERELVASIDSGDITHYADSVKGRFTISRDNAMNTVYLQMISLKPEDTAVYYCAKRPQAQYTYITGDDYWGQGTQVTVSS | low polyreactivity
35 | QVQLVESGRGLVQAGGSLRLTCAASGRIFYLNAMGGYRQAPGKERELVAGITNSTTGTYYADSVKGRFTIARDNAKNTVYLQMNSLKPVDTAVYYCNTDVAYEEPVETYDYWGQGTQVTVSS | low polyreactivity
36 | QVQLVESGRGLVQAGGSLRLTCAASGSTFTANDMGGSRPATGTERELFADISSGDGTNYADSVKGRFTISRDNAKNTVYLQMISLKPEDTAVYYCAKDVYNFRTTHSYFTGYDSWGHGTQVTVSS | low polyreactivity
37 | QVQLVESGRGLVQAGGSLSLSCAASGRIFYYYVMGWYRQAPGKERELVAVIDWSGGSTYYADSVKGRFTISRVNAKNTVYLQMNSLKPEDTAVYYCAKVGLNFSLAYEDYDYWGQGTQVTVSS | low polyreactivity
38 | QVQLVESGRGLVQAGGSRRLSCAASGSIITWNAMARYRQAPGKERELFAAIDWDGGSTYYADSVKGRFTISRDNAKNTVYFQMNSLKPEDTAVYYCAATYGWYTGRYPSGHYYYWGQGTQVTVSS | low polyreactivity
39 | QVQLVESGRGLVQAGGTLRLSCAASGRIFYWNAMGWYRQAHGKERELVAAISWSGGSTYYADSVKGRFTISRDNAKNTVYLQMNSLKPEDTAVYYCAADGGRRTYYVKYDYWGQGTQVTVSS | low polyreactivity
40 | QVQLVESGRGLVQAGGTLRLSCAASGSIFGYYAMGWYRQAPGKERELVASISGSGGTTYYADSVKGRFTISRDNAKNTVYLQMNSLNPEDTAVYYCAARRSIYGYPFVTSRRGYWGQGTQVTVSS | high polyreactivity
41 | QVQLVESGRGLVQAGVSLRLSCASSGSTFTLNVMGWYRKAPVKERELVAGFSKRGGNTYYADSVKGRFTISRDYAKNTVYLQMNRLKPEDTAVYFCAKRQGVGYGYYYLGQGTQVTVSS | high polyreactivity
